# Laboratory results reported in US20210206825A1 (published 2021).
# B1: ECB15 (SEQ ID NO: 145) (designed binder)
# chain: LPAPKNLVVSEVTEDSARLSWDDPWAFYESFLIQYQESEKVGEAIVLTVPGSERSYDLTGLKPGTEYTVSIYGVHNVYKDTNMRGLPLSAIFTTAPAPAPAPAPLPAPKNLVVSRVTEDSARLSWTAPDAAFDSFWIRYFEFLGSGEAIVLTVPGSERSYDLTGLKPGTEYVVNIMGVKGGKISPPLSAIFTT
# notes: kept as two constructs; also called ECB15 without Met; not shown: C-terminal poly-histidine tag
# B2: A3 I79S (designed binder)
# chain: LPAPKNLVVSEVTEDSARLSWDDPWAFYESFLIQYQESEKVGEAIVLTVPGSERSYDLTGLKPGTEYTVSIYGVHNVYKDTNMRGLPLSAIFTTAPAPAPAPAPLPAPKNLVVSRVTEDSARLSWTAPDAAFDSFWIRYFEFLGSGEAIVLTVPGSERSYDLTGLKPGTEYVVNIMGVKGGKSSPPLSAIFTT
# notes: In the context of ECB15; built as m66; not shown: C-terminal poly-histidine tag
# B3: A3 G40S (designed binder)
# chain: LPAPKNLVVSEVTEDSARLSWDDPWAFYESFLIQYQESEKVGEAIVLTVPGSERSYDLTGLKPGTEYTVSIYGVHNVYKDTNMRGLPLSAIFTTAPAPAPAPAPLPAPKNLVVSRVTEDSARLSWTAPDAAFDSFWIRYFEFLSSGEAIVLTVPGSERSYDLTGLKPGTEYVVNIMGVKGGKISPPLSAIFTT
# notes: as for B2
# B4: A3 L39S (designed binder)
# chain: LPAPKNLVVSEVTEDSARLSWDDPWAFYESFLIQYQESEKVGEAIVLTVPGSERSYDLTGLKPGTEYTVSIYGVHNVYKDTNMRGLPLSAIFTTAPAPAPAPAPLPAPKNLVVSRVTEDSARLSWTAPDAAFDSFWIRYFEFSGSGEAIVLTVPGSERSYDLTGLKPGTEYVVNIMGVKGGKISPPLSAIFTT
# notes: as for B2
# B5: A3 R34S (designed binder)
# chain: LPAPKNLVVSEVTEDSARLSWDDPWAFYESFLIQYQESEKVGEAIVLTVPGSERSYDLTGLKPGTEYTVSIYGVHNVYKDTNMRGLPLSAIFTTAPAPAPAPAPLPAPKNLVVSRVTEDSARLSWTAPDAAFDSFWISYFEFLGSGEAIVLTVPGSERSYDLTGLKPGTEYVVNIMGVKGGKISPPLSAIFTT
# notes: as for B2
# B6: A3 P81S (designed binder)
# chain: LPAPKNLVVSEVTEDSARLSWDDPWAFYESFLIQYQESEKVGEAIVLTVPGSERSYDLTGLKPGTEYTVSIYGVHNVYKDTNMRGLPLSAIFTTAPAPAPAPAPLPAPKNLVVSRVTEDSARLSWTAPDAAFDSFWIRYFEFLGSGEAIVLTVPGSERSYDLTGLKPGTEYVVNIMGVKGGKISSPLSAIFTT
# notes: as for B2
# B7: A3 V68S (designed binder)
# chain: LPAPKNLVVSEVTEDSARLSWDDPWAFYESFLIQYQESEKVGEAIVLTVPGSERSYDLTGLKPGTEYTVSIYGVHNVYKDTNMRGLPLSAIFTTAPAPAPAPAPLPAPKNLVVSRVTEDSARLSWTAPDAAFDSFWIRYFEFLGSGEAIVLTVPGSERSYDLTGLKPGTEYSVNIMGVKGGKISPPLSAIFTT
# notes: as for B2
# B8: A3 M72S (designed binder)
# chain: LPAPKNLVVSEVTEDSARLSWDDPWAFYESFLIQYQESEKVGEAIVLTVPGSERSYDLTGLKPGTEYTVSIYGVHNVYKDTNMRGLPLSAIFTTAPAPAPAPAPLPAPKNLVVSRVTEDSARLSWTAPDAAFDSFWIRYFEFLGSGEAIVLTVPGSERSYDLTGLKPGTEYVVNISGVKGGKISPPLSAIFTT
# notes: as for B2
# B9: A3 F36S (designed binder)
# chain: LPAPKNLVVSEVTEDSARLSWDDPWAFYESFLIQYQESEKVGEAIVLTVPGSERSYDLTGLKPGTEYTVSIYGVHNVYKDTNMRGLPLSAIFTTAPAPAPAPAPLPAPKNLVVSRVTEDSARLSWTAPDAAFDSFWIRYSEFLGSGEAIVLTVPGSERSYDLTGLKPGTEYVVNIMGVKGGKISPPLSAIFTT
# notes: as for B2
# B10: A3 F38S (designed binder)
# chain: LPAPKNLVVSEVTEDSARLSWDDPWAFYESFLIQYQESEKVGEAIVLTVPGSERSYDLTGLKPGTEYTVSIYGVHNVYKDTNMRGLPLSAIFTTAPAPAPAPAPLPAPKNLVVSRVTEDSARLSWTAPDAAFDSFWIRYFESLGSGEAIVLTVPGSERSYDLTGLKPGTEYVVNIMGVKGGKISPPLSAIFTT
# notes: as for B2
# B11: A3 N70S (designed binder)
# chain: LPAPKNLVVSEVTEDSARLSWDDPWAFYESFLIQYQESEKVGEAIVLTVPGSERSYDLTGLKPGTEYTVSIYGVHNVYKDTNMRGLPLSAIFTTAPAPAPAPAPLPAPKNLVVSRVTEDSARLSWTAPDAAFDSFWIRYFEFLGSGEAIVLTVPGSERSYDLTGLKPGTEYVVSIMGVKGGKISPPLSAIFTT
# notes: as for B2
# B12: A3 W32S (designed binder)
# chain: LPAPKNLVVSEVTEDSARLSWDDPWAFYESFLIQYQESEKVGEAIVLTVPGSERSYDLTGLKPGTEYTVSIYGVHNVYKDTNMRGLPLSAIFTTAPAPAPAPAPLPAPKNLVVSRVTEDSARLSWTAPDAAFDSFSIRYFEFLGSGEAIVLTVPGSERSYDLTGLKPGTEYVVNIMGVKGGKISPPLSAIFTT
# notes: as for B2
# B13: A3 K78S (designed binder)
# chain: LPAPKNLVVSEVTEDSARLSWDDPWAFYESFLIQYQESEKVGEAIVLTVPGSERSYDLTGLKPGTEYTVSIYGVHNVYKDTNMRGLPLSAIFTTAPAPAPAPAPLPAPKNLVVSRVTEDSARLSWTAPDAAFDSFWIRYFEFLGSGEAIVLTVPGSERSYDLTGLKPGTEYVVNIMGVKGGSISPPLSAIFTT
# notes: Tested in the context of bispecific ECB15; not shown: C-terminal poly-histidine tag
# B14: ECB95 (designed binder, not shown: small tags and cut ends)
# chain: MLPAPKNLVVSEVTEDSARLSWDDPWAFYESFLIQYQESEKVGEAIVLTVPGSERSYDLTGLKPGTEYTVSIYGVHNVYKDTNIRGLPLSAIFTTAPAPAPAPAPLPAPKNLVVSRVTEDSARLSWTAPDAAFDSFWIRYFEFVGSGEAIVLTVPGSERSYDLTGLKPGTEYVVNILGVKGGSISPPLSAIFTT
# B15: ECB106 (designed binder, not shown: small tags and cut ends)
# chain: MLPAPKNLVVSEVTEDSARLSWDDPHAFYESFLIQYQESEKVGEAIVLTVPGSERSYDLTGLKPGTEYTVSIYGVHNVYKDTNIRGLPLSAIFTTAPAPAPAPAPLPAPKNLVVSRVTEDSARLSWTAPDAAFDSFWIRYFEFLGSGEAIVLTVPGSERSYDLTGLKPGTEYVVNILGVKGGKISPPLSAIFTT
# B16: ECB108 (designed binder, not shown: small tags and cut ends)
# chain: MLPAPKNLVVSEVTEDSARLSWDDPHAFYESFLIQYQESEKVGEAIVLTVPGSERSYDLTGLKPGTEYTVSIYGVHNVYKDTNIRGLPLSAIFTTAPAPAPAPAPLPAPKNLVVSRVTEDSARLSWTAPDAAFDSFWIRYFEFVSKGDAIVLTVPGSERSYDLTGLKPGTEYVVNILGVKGGSISPPLSAIFTT
# B17: ECB107 (designed binder, not shown: small tags and cut ends)
# chain: MLPAPKNLVVSEVTEDSARLSWDDPHAFYESFLIQYQESEKVGEAIVLTVPGSERSYDLTGLKPGTEYTVSIYGVHNVYKDTNIRGLPLSAIFTTAPAPAPAPAPLPAPKNLVVSRVTEDSARLSWTAPDAAFDSFWIRYFEFVGSGEAIVLTVPGSERSYDLTGLKPGTEYVVNILGVKGGSISPPLSAIFTT
# B18: ECB97 (designed binder, not shown: small tags and cut ends)
# chain: MLPAPKNLVVSEVTEDSARLSWDDPWAFYESFLIQYQESEKVGEAIVLTVPGSERSYDLTGLKPGTEYTVSIYGVHNVYKDTNIRGLPLSAIFTTAPAPAPAPAPLPAPKNLVVSRVTEDSARLSWTAPDAAFDSFWIRYFEFLGSGEAIVLTVPGSERSYDLTGLKPGTEYVVNILSVKGGSISPPLSAIFTT
# B19: ECB109 (designed binder, not shown: small tags and cut ends)
# chain: MLPAPKNLVVSEVTEDSARLSWDDPHAFYESFLIQYQESEKVGEAIVLTVPGSERSYDLTGLKPGTEYTVSIYGVHNVYKDTNIRGLPLSAIFTTAPAPAPAPAPLPAPKNLVVSRVTEDSARLSWTAPDAAFDSFWIRYFEFLGSGEAIVLTVPGSERSYDLTGLKPGTEYVVNILSVKGGSISPPLSAIFTT
# B20: ECB15 (designed binder, not shown: small tags and cut ends)
# chain: MLPAPKNLVVSEVTEDSARLSWDDPWAFYESFLIQYQESEKVGEAIVLTVPGSERSYDLTGLKPGTEYTVSIYGVHNVYKDTNMRGLPLSAIFTTAPAPAPAPAPLPAPKNLVVSRVTEDSARLSWTAPDAAFDSFWIRYFEFLGSGEAIVLTVPGSERSYDLTGLKPGTEYVVNIMGVKGGKISPPLSAIFTT
# B21: ECB96 (designed binder, not shown: small tags and cut ends)
# chain: MLPAPKNLVVSEVTEDSARLSWDDPWAFYESFLIQYQESEKVGEAIVLTVPGSERSYDLTGLKPGTEYTVSIYGVHNVYKDTNIRGLPLSAIFTTAPAPAPAPAPLPAPKNLVVSRVTEDSARLSWTAPDAAFDSFWIRYFEFVSKGDAIVLTVPGSERSYDLTGLKPGTEYVVNILGVKGGSISPPLSAIFTT
# B22: ECB94 (designed binder, not shown: small tags and cut ends)
# chain: MLPAPKNLVVSEVTEDSARLSWDDPWAFYESFLIQYQESEKVGEAIVLTVPGSERSYDLTGLKPGTEYTVSIYGVHNVYKDTNIRGLPLSAIFTTAPAPAPAPAPLPAPKNLVVSRVTEDSARLSWTAPDAAFDSFWIRYFEFLGSGEAIVLTVPGSERSYDLTGLKPGTEYVVNILGVKGGKISPPLSAIFTT
# Experiments:
# [1] = target: T1, recombinant human c-Met Fc chimera (human, UniProt P08581 16-932); assay: SPR
# T1 construct: also called c-Met-Fc fusion protein; c-Met extracellular domain; not shown: Fc
# Description: Serine was chosen to decrease the hydrophobicity of the resulting mutants. […] Fold change indicates fold change of the KD value of a variant when compared to the parent P114AR7P95-A3.
# human EGFR on cells = human EGFR on cells (human, UniProt P00533 25-1210); assay: cell-based or functional assay
Binder,Kd [1] [nM],binding result [1],Fold Change of KD vs parent [1] [fold],koff [1] [s⁻¹],kon [1] [M⁻¹ s⁻¹],pEGFR inhibition in H292 cells (IC50) (human EGFR on cells) [nM]
B1,0.4,,,,,
B2,,no binding,,,,
B3,1.7,,4.25,0.00032,185000,
B4,2.7,,6.75,0.00127,475000,
B5,,no binding,,,,
B6,1.7,,4.25,0.000536,321000,
B7,3.6,,9,0.0012,329000,
B8,,no binding,,,,
B9,27.2,,68,0.00512,188000,
B10,717,,1790,0.0323,45100,
B11,5.9,,14.8,0.00249,425000,
B12,29.8,,74.5,0.0086,289000,
B13,0.3,,0.75,0.00015,440000,
B14,,,,,,13.6
B15,,,,,,367
B16,,,,,,814
B17,,,,,,812
B18,,,,,,16.6
B19,,,,,,432
B20,,,,,,4.2
B21,,,,,,24.7
B22,,,,,,5.1
